B1: Pistol ribozyme (parent)
chain: GGGUCGUUGUUCCAUAAUCGCGUGGAUAUGGCACGCAAGUUUCUACCGGGCACCGUAAAUGUCCGACUGGAGCCGUUCGGGCGGCUAUAAACAGACCUCAGGCCCGAAGCGUGGCGGCACCUGCCGCCGGUGGUAAAAAAGAUCGGAAGAGCACACGUCU

Variants of: B1
Assay: aptazyme ON/OFF ratio, guanine; higher = stronger switching; co-transcriptional cleavage with and without guanine

In order of falling “aptazyme ON/OFF ratio” value:
1. U7G G9A U10C  3.35
2. U7C U8C G9C U10A  2.7
3. U10A U11A  1.73
4. U7C U8G G9C U11C C12G  1.67
5. U7A U8G G9U U10C U11A C12G  1.61
6. U7A U8G U10C U11G C12A C13G  1.61
7. U7G U8G G9A C12G  1.59
8. U7G U8C G9A U10C C13U  1.58
9. U7G U8A U10C U11C C12A  1.46
10. U7C G9U U10A U11C C12G  1.43
11. U7G G9C U10A U11G C12U  1.43
12. U7G U8A U10G U11G C13U  1.42
13. G9C U10C U11G  1.41
14. U7A G9A U10G C12U  1.41
15. U7G U8G G9U U10C C12A C13U  1.4
16. U7A U8G G9U U10G U11A C12A C13G  1.39
17. U7C U8G G9A U10A U11G C12U  1.38
18. G9A U11C C12A  1.38
19. U7A U8G G9U U10A U11A C12G C13A  1.36
20. U7G U8C G9C U10C U11C C13G  1.36
21. U7G U11A C13U  1.36
22. U7A U8C U10G U11C C12A C13A  1.34
23. U7C U8C U10C U11A C12U C13A  1.33
24. U8G U11A C13U  1.33
25. U8C U10C U11C C12A C13G  1.33
26. U8G U10A U11G C12G C13A  1.31
27. G9A U11G C12G  1.3
28. U7G U8G G9C U10C U11G C13U  1.3
29. U7G U8C U10G U11G C13U  1.3
30. U7C U8A G9U C12U C13U  1.29
31. U7G G9U C12U C13A  1.28
32. U7C U8C G9U U10A U11A C12U  1.28
33. U7C U8A U10G U11G C12U  1.28
34. U7A U8A U10A U11G C13G  1.28
35. U7C G9A U10A U11C C12G C13A  1.27
36. U8G G9U U11G C12U  1.27
37. U7A U8C G9C U10A U11C C12U C13G  1.26
38. U7A C12G C13G  1.26
39. U8A G9A U10G C12G C13U  1.26
40. U7C U11C C12A C13U  1.25
41. U8A G9U C12U C13G  1.25
42. U8A G9U U10A U11A C12G  1.25
43. U8G G9C U11G C12U C13U  1.25
44. U7C U8G G9U U10C U11A C13A  1.24
45. U7A U8A U10C U11A C12G C13G  1.24
46. U7C U8G G9A U10G U11A C12G  1.24
47. G9C U10A C12U C13A  1.24
48. U7A U8A G9A U10A U11G C12A C13U  1.24
49. U7A U8G U10A C12G C13A  1.24
50. U7A U8G G9C U10G U11G C12G C13G  1.24
51. U7A U8G G9C U10C U11A C12G  1.23
52. U7G U8A G9A U11C C12U C13A  1.23
53. G9U U10A C12A C13A  1.22
54. U7C G9U U10G U11G C12A  1.22
55. U7C U8C G9U C12A C13U  1.22
56. U7A U8A U11A  1.22
57. U8A U10A C12U C13A  1.21
58. U7A U8C G9U U10G U11A C12G  1.21
59. U7C U8G G9U U10C U11G C12G  1.21
60. G9U U10A C12A  1.21
61. U8C G9U U10A C12U C13G  1.2
62. U7A G9A U10C U11A C12U C13A  1.2
63. U8C G9C U10A U11C C12G  1.2
64. U8A G9C U10G C12G C13U  1.2
65. U8G G9U U10A C12U C13G  1.19
66. U7A G9U U10A U11G C12A C13G  1.19
67. U7C U8G U11C C12U C13G  1.19
68. U8A G9C U10A C12A C13U  1.19
69. U7C U8C G9A U10A U11A C13A  1.18
70. U7G G9A U10C U11A C12U  1.18
71. U7G U8G G9A U10A U11A C13U  1.18
72. U7G U8G G9U U11A C12A C13U  1.18
73. U7C U8A G9U U10C C12G C13A  1.18
74. U8A G9C U11G C12G C13A  1.18
75. U8G U10A U11C C12A  1.18
76. U7A U8A G9U U10C U11G C13G  1.17
77. U8A U10C U11A C13A  1.17
78. U8A G9A U11C C12G  1.17
79. U7G U8G G9U U10G U11C C13G  1.17
80. U7C U8C G9U U10G U11A C12A C13U  1.17
81. U7C G9U U10G U11C C12A C13G  1.17
82. U7G U8C G9U U10G U11G C12U C13A  1.17
83. U8G U10G C12A C13U  1.17
84. U8G G9A U11A C12G  1.17
85. U7C U8G U10C U11C C12A C13A  1.16
86. U7C U8G G9A U10A C13U  1.15
87. U8C G9A U10A U11A C12G C13A  1.15
88. U7A U8G G9A U10G U11A C12G C13A  1.15
89. U7A U8C G9A U10A U11C C12U C13G  1.15
90. U7A U8G G9U U10C U11C  1.15
91. U8G U10C U11C C12G C13U  1.15
92. U7C U10C U11C C13G  1.14
93. U7C U8C G9C U10G U11A C13A  1.14
94. U7C G9U U10A U11G C12G C13G  1.14
95. U7A U8C G9U U10G C12U C13U  1.14
96. U7A U8A G9C U10A U11A C12A C13U  1.14
97. U7C U8A G9U U11C C12G  1.14
98. U7G U8G G9U U10G U11A C12G C13U  1.14
99. U7G U8G G9U U10G U11C C12A  1.13
100. U7G G9U U10C U11A C12G C13A  1.13
101. U7C U8A G9C C12G  1.13
102. U7C U8C U10G C13A  1.13
103. U7G U8C U10A C13U  1.12
104. U8G G9A U10C U11C C12A C13G  1.12
105. U7A U8C G9A C12G C13G  1.12
106. G9U U10C U11G C12G C13U  1.12
107. U8C G9C U11A C13G  1.12
108. U7A U8G U10G U11C C13A  1.11
109. U8G G9C U10G U11A C12A C13U  1.11
110. U7C G9U U10C U11A  1.11
111. U7G G9C U10G U11G C12G C13A  1.11
112. U7G U8G G9A U11C C12G C13G  1.11
113. U7G U8C U11G C12G C13A  1.11
114. U7A U8A U10G U11C C12G C13G  1.11
115. U8C G9U U10A U11C C12U  1.11
116. U7C U8A G9C U10G U11G  1.1
117. U7G U8A G9U C12G  1.1
118. U7C U8A G9A U10A U11C C12U  1.09
119. G9C U10C C12A  1.09
120. U7C G9C U10G U11G C12G C13U  1.09
121. U8G U10G U11G C12A  1.09
122. U7G U8A G9U U10A U11C C12G  1.09
123. U7A U8A G9A U10C C13U  1.09
124. U8C G9C U10G U11G C12U C13U  1.09
125. U7G G9A U10A U11G C13A  1.09
126. U8C G9C U11G C12A C13A  1.09
127. U7A U8C G9A U10A U11G C12A C13A  1.08
128. U7A G9U U11G C12U C13U  1.08
129. U7G G9A U10G U11C C13A  1.08
130. U7A U8A G9A U10C U11A C12A  1.08
131. U8C G9C U10C C12A C13G  1.08
132. U7C U8A U10C U11G C12G C13G  1.08
133. U7C G9C U10G C13G  1.08
134. U8G G9A U11A C12G C13A  1.08
135. U7C G9C U10G U11G C12U C13A  1.07
136. U7C U8A G9C U11C C12G C13A  1.07
137. U8A G9A U10G U11C C13A  1.07
138. U8G G9U U10G U11G C12A  1.06
139. U8G G9C U10C C12A C13G  1.06
140. U7A U8A G9C U11C C12G C13A  1.06
141. U7C U8A G9C U10C U11G C13G  1.06
142. U8A G9A U10G U11A C13U  1.06
143. U7G U8A G9U U10G U11A C13U  1.06
144. U7G U8A G9C U11C C12G  1.05
145. U7C U8G G9A U10A C13G  1.05
146. U7G G9U U10G U11G C12U C13G  1.05
147. U7C G9A U11C  1.05
148. U7G U8A G9C U11C C13U  1.05
149. U10A U11C  1.05
150. U7A U8C G9C U10A U11G C12A  1.04
151. U7G U8A G9C U10C U11C C12U C13G  1.04
152. U7G U10C C12U C13A  1.04
153. U7C U8A G9C U10C U11A C12U C13U  1.04
154. U7G U8C G9C U10C C12A C13U  1.04
155. U8C G9A U11C C13U  1.04
156. U7G U8A G9C U10C U11C C12G  1.03
157. U7C U8A G9A U10G U11C  1.03
158. U7A G9C U10C U11C C13U  1.03
159. U7C U8A G9U U11C C13G  1.03
160. U7G U8A G9C U10C U11G C12G C13A  1.02
161. U7A U8A G9U U10G U11C C13U  1.02
162. U7A U8A G9U U10C U11C C12U C13A  1.02
163. U7C U8A G9U U10C U11C C12U C13G  1.02
164. U7G U8A G9U U11A C13G  1.02
165. U8A G9C U10A U11C C13U  1
166. U7G U8A G9C U10C U11G C12A C13G  1
167. U7A U8A U10A U11G C12G  0.984
